Measurements taken from US20260077071A1, “Targeted Delivery of Theranostic Agents” (Peter MacCallum Cancer Institute, priority 2022, published 2026).
Square brackets hold non-standard residues; d marks the D form. Peptide text beside a SMILES is read from it. * marks the point of attachment. DOTA = O=C(O)CN1CCN(CC(=O)O)CCN(CC(=O)*)CCN(CC(=O)O)CC1; NMe1Nal = CN[C@@H](Cc1cccc2ccccc12)C(=O)O; 1Nal = N[C@@H](Cc1cccc2ccccc12)C(=O)O; NMeF = CN[C@@H](Cc1ccccc1)C(=O)O; NMeNle = CCCC[C@H](NC)C(=O)O; Sar = CNCC(=O)O

What was measured:
[1] = LogD7.4 determination (PBS pH 7.4 / n-octanol); type: physicochemical; conditions: PBS/Octanol mix, n = 5
Method: The distribution coefficients (LogD7.4) of radiolabelled compounds [^68Ga]Ga-1-4, and [^68Ga]Ga-Cmp ex-2 were assayed by measuring radioactivity distribution in the aqueous phase (phosphate buffer pH7.4) and the organic phase (n-octanol). To determine the distribution coefficient (LogD), Ga-68 radiolabelled compounds were diluted to 20 pmol/mL in PBS (pH 7.4) and an equal volume of n-octanol was added. The mixture was vortexed vigorously for 10 cycles of 1 min at room temperature before being centrifuged for 6 min to separate the two phases. Equal volumes from each phase were aliquoted into individual counting tubes and analysed for 1 min using the Perkin Elmer 2480 Wizard2™ gamma counter (PerkinElmer, Massachusetts, USA). The distribution coefficient was calculated using the following equation [formula]

in vitro = in vitro ADME, mouse; conditions: for remaining at 1.5 h: mouse, pH 7.3
Method: Drug detoxification, drug metabolism and metabolic stability are important determinants of the efficacy of theranostic candidates in clinical settings. To assess metabolic stability, radiolabelled Compounds [^68Ga]Ga-1-4 and comparative example-2 ([^68Ga]Ga-Cmp ex-2) were challenged by incubation in either human serum, mouse liver or kidney homogenates and HEPES buffer as a negative control. Duplicate samples (750-900 pmol/mL) were incubated at 37° C. with pooled human serum, 15% mouse kidney homogenate, 30% mouse liver homogenate or 20 mM HEPES, pH 7.3 (control). Human blood was collected and serum prepared using SSTII advance vacutainer tubes according to the manufacturer's instructions (Becton Dickinson, New Jersey, USA). Mouse kidney and liver homogenates were prepared by washing the tissues in ice-cold HEPES buffer, pH 7.3 and placing them in pre-chilled tubes containing HEPES buffer and 2.38 mm metal beads (Mo-Bio Laboratories, Hilden, Germany). Tissues were homogenised using the PowerLyzer24 homogeniser (Qiagen, Hilden, Germany) according to the manufacturer's instructions. Ga-68 radiolabelled peptides were incubated with the various lysates at 37° C. and samples were collected at 15, 30, 60 and 90 min. Reactions were terminated by addition of an equal volume of acetonitrile and centrifugation for 2 min at 15,000 rpm. Supernatants were diluted in water before being analysed by HPLC using a Kinetex C18 XB column (5 μm 4.6×150 mm), eluted at 1.5 mL/min of gradient 20-60% MeCN in water containing 0.1% formic acid over 7 min.

A431 CCK2R cells = test system: A431 CCK2R cells; set-up: species or system BALB/c nu/nu mice; conditions: mouse, in vivo, iv
Method: The diagnostic efficacy of Compounds [^68Ga]Ga-1-4 and [^68Ga]Ga-Cmp ex-2 was assessed using static small animal PET imaging and quantifying biodistribution studies. Female BALB/c nu/nu mice (age 8-10 weeks) were inoculated subcutaneously on the right flank with 3×10^6 A431 CCK2R cells in PBS:Matrigel (1:1). Mice were weighed and tumours measured twice weekly using electronic callipers with tumour volume (mm^3) calculated as length×width×height×π/6. Mice were assigned to imaging and/or biodistribution groups (tumour volumes: 50-500 mm^3). The respective Ga-68 labelled tracer (4-5 MBq, 100 μL, 13.7-14.2 pmoles) was mixed with vehicle solution (75 μL, DMSO:Tween 80:water, 2:2:6 v/v/v) and then administered to six mice intravenously via tail vein injection. Three mice were euthanised for biodistribution 1 h post injection and selected tissues were excised, weighed and counted using a Capintec (Captus 4000e) gamma counter. Three mice were anaesthetised using 1.5% isoflurane and imaged at 1 and 2 h with a G8 Small Animal PET/CT scanner (Perkin Elmer/Sofie Biosciences). A 10 min static PET scan was acquired, followed immediately by a CT scan. PET images were acquired using the G8 acquisition engine software and reconstructed using a 3D maximal likelihood and expectation maximization (ML-EM) algorithm. PET images were analysed using VivoQuant software, version 3.0 (inviCRO Imaging Services and Software) to quantify maximum standardised uptake value in regions of interest (SUVmax). After imaging the 2 h time point the mice were harvested for biodistribution analysis as above.
For blocking CCK2R binding a solution of N-[(3R)-2,3-Dihydro-1-[2-(2-methylphenyl)-2-oxoethyl]-2-oxo-5-phenyl-1H-1,4-benzodiazepin-3-yl]-N′-(3-methylphenyl)-urea (YM022; Sigma Aldrich) was used. […]

SMILES	LogD7.4 [1]	metabolism in kidney homogenates (in vitro)	metabolism in liver homogenates (in vitro)	remaining at 1.5 h (in vitro; other tissue homogenate) [%]	remaining at 1.5 h (in vitro; tissue homogenate) [%]	tumour to kidney ratio (A431 CCK2R cells)	renal / kidney uptake (A431 CCK2R cells)	tumour uptake (A431 CCK2R cells)
CCCC[C@@H](C(=O)N[C@@H](CC(=O)O)C(=O)N[C@@H](Cc1cccc2ccccc12)C(N)=O)N(C)C(=O)[C@H](Cc1c[nH]c2ccccc12)NC(=O)CN(C)C(=O)[C@H](Cc1ccc(O)cc1)NC(=O)[C@H](C)NC(=O)[C@@H](CCC(=O)O)NC(=O)[C@@H](CCC(=O)O)NC(=O)[C@@H](CCC(=O)O)NC(=O)[C@@H](C)NC(=O)[C@@H](CCC(=O)O)NC(=O)[C@@H](CCC(=O)O)NC(=O)CN1CCN(CC(=O)O)CCN(CC(=O)O)CCN(CC(=O)O)CC1 [[^68Ga]Ga-1, metal not drawn] ({DOTA}-[dE][dE][dA][dE][dE][dE]AY[Sar]W[NMeNle]D[1Nal]-NH2)	−2.88 ± 0.09	significant metabolism	significant metabolism	75	85	–	–	–
CCCC[C@@H](C(=O)N[C@@H](CC(=O)O)C(=O)N(C)[C@@H](Cc1cccc2ccccc12)C(N)=O)N(C)C(=O)[C@H](Cc1c[nH]c2ccccc12)NC(=O)CN(C)C(=O)[C@H](Cc1ccc(O)cc1)NC(=O)[C@H](C)NC(=O)[C@@H](CCC(=O)O)NC(=O)[C@@H](CCC(=O)O)NC(=O)[C@@H](CCC(=O)O)NC(=O)[C@@H](C)NC(=O)[C@@H](CCC(=O)O)NC(=O)[C@@H](CCC(=O)O)NC(=O)CN1CCN(CC(=O)O)CCN(CC(=O)O)CCN(CC(=O)O)CC1 [[^68Ga]Ga-4, metal not drawn] ({DOTA}-[dE][dE][dA][dE][dE][dE]AY[Sar]W[NMeNle]D[NMe1Nal]-NH2)	−2.59 ± 0.02	no observable metabolites detected	no observable metabolites detected	–	–	best tumour to kidney ratio	–	–
CCCC[C@@H](C(=O)N[C@@H](CC(=O)O)C(=O)N[C@@H](Cc1ccccc1)C(N)=O)N(C)C(=O)[C@H](Cc1c[nH]c2ccccc12)NC(=O)CN(C)C(=O)[C@H](Cc1ccc(O)cc1)NC(=O)[C@H](C)NC(=O)[C@@H](CCC(=O)O)NC(=O)[C@@H](CCC(=O)O)NC(=O)[C@@H](CCC(=O)O)NC(=O)[C@@H](C)NC(=O)[C@@H](CCC(=O)O)NC(=O)[C@@H](CCC(=O)O)NC(=O)CN1CCN(CC(=O)O)CCN(CC(=O)O)CCN(CC(=O)O)CC1 [[^68Ga]Ga-3, metal not drawn] ({DOTA}-[dE][dE][dA][dE][dE][dE]AY[Sar]W[NMeNle]DF-NH2)	−4.06 ± 0.14	significant metabolism	significant metabolism	20	~35	–	–	–
CCCC[C@@H](C(=O)N[C@@H](CC(=O)O)C(=O)N(C)[C@@H](Cc1ccccc1)C(N)=O)N(C)C(=O)[C@H](Cc1c[nH]c2ccccc12)NC(=O)CN(C)C(=O)[C@H](Cc1ccc(O)cc1)NC(=O)[C@H](C)NC(=O)[C@@H](CCC(=O)O)NC(=O)[C@@H](CCC(=O)O)NC(=O)[C@@H](CCC(=O)O)NC(=O)[C@@H](C)NC(=O)[C@@H](CCC(=O)O)NC(=O)[C@@H](CCC(=O)O)NC(=O)CN1CCN(CC(=O)O)CCN(CC(=O)O)CCN(CC(=O)O)CC1 [[^68Ga]Ga-2, metal not drawn] ({DOTA}-[dE][dE][dA][dE][dE][dE]AY[Sar]W[NMeNle]D[NMeF]-NH2)	−3.56 ± 0.01	no observable metabolites detected	no observable metabolites detected	–	–	–	–	–
CCCC[C@@H](C(=O)N[C@@H](CC(=O)O)C(=O)N(C)[C@@H](Cc1cccc2ccccc12)C(N)=O)N(C)C(=O)[C@H](Cc1c[nH]c2ccccc12)NC(=O)CN(C)C(=O)[C@H](Cc1ccc(O)cc1)NC(=O)[C@H](C)NC(=O)[C@@H](CCC(=O)O)NC(=O)[C@@H](CCC(=O)O)NC(=O)[C@@H](CCC(=O)O)NC(=O)[C@@H](CCC(=O)O)NC(=O)[C@@H](CCC(=O)O)NC(=O)[C@@H](CCC(=O)O)NC(=O)CN1CCN(CC(=O)O)CCN(CC(=O)O)CCN(CC(=O)O)CC1 [[^68Ga]Ga-Cmp ex-2, metal not drawn, reference compound] ({DOTA}-[dE][dE][dE][dE][dE][dE]AY[Sar]W[NMeNle]D[NMe1Nal]-NH2)	−2.97 ± 0.13	no observable metabolites detected	no observable metabolites detected	–	–	–	highest renal uptake	best tumour uptake
